{
  "source": "patent US9499613B2",
  "about": "“Notch1 receptor binding agents and methods of use thereof” (OncoMed Pharmaceuticals, Inc., priority 2008, dated 2016)",
  "key": {"[1]": {"test_system": "C8 colon tumor cells", "experiment": "C8 colon tumor xenograft, treatment of established tumors", "format": "in vivo, NOD/SCID mice", "conditions": "C8 colon tumors ~210 mm^3 at start, 10 mg/kg i.p. twice a week", "method": "Tumor cells from a patient sample (solid tumor biopsy or pleural effusion) that have been passaged as a xenograft in mice were prepared for repassaging into experimental animals. Tumor tissue was removed, cut up into small pieces, minced completely using sterile blades, and single cell suspensions obtained by enzymatic digestion and mechanical disruption. Dissociated tumor cells were then injected subcutaneously into the mammary fat pads, for breast tumors, or into the flank, for non-breast tumors, of NOD/SCID mice to elicit tumor growth. In certain embodiments, ESA+, CD44+, CD24−/low, Lin− tumorigenic tumor cells are isolated as described in detail above and injected.\nIn certain embodiments, freshly isolated C8 colon tumor cells (225 cells per animal) were implanted subcutaneously into NOD/SCID mice. Following tumor cell injection, animals were monitored for tumor growth. Tumors were allowed to grow for 48 days until they reached an average size of approximately 210 mm^3 and randomized into two groups (n=10 per group). The animals were treated with either control antibody or antibody that binds to the membrane proximal region of the extracellular domain of human Notch1, 52M51, (10 mg/kg) dosed i.p. twice a week. Tumor size was assessed on days 55, 57, and 62."}, "[2]": {"molecular_target": "T1, Notch1 (Homo sapiens, UniProt P46531)", "T1 sequence (P46531 19-2555)": "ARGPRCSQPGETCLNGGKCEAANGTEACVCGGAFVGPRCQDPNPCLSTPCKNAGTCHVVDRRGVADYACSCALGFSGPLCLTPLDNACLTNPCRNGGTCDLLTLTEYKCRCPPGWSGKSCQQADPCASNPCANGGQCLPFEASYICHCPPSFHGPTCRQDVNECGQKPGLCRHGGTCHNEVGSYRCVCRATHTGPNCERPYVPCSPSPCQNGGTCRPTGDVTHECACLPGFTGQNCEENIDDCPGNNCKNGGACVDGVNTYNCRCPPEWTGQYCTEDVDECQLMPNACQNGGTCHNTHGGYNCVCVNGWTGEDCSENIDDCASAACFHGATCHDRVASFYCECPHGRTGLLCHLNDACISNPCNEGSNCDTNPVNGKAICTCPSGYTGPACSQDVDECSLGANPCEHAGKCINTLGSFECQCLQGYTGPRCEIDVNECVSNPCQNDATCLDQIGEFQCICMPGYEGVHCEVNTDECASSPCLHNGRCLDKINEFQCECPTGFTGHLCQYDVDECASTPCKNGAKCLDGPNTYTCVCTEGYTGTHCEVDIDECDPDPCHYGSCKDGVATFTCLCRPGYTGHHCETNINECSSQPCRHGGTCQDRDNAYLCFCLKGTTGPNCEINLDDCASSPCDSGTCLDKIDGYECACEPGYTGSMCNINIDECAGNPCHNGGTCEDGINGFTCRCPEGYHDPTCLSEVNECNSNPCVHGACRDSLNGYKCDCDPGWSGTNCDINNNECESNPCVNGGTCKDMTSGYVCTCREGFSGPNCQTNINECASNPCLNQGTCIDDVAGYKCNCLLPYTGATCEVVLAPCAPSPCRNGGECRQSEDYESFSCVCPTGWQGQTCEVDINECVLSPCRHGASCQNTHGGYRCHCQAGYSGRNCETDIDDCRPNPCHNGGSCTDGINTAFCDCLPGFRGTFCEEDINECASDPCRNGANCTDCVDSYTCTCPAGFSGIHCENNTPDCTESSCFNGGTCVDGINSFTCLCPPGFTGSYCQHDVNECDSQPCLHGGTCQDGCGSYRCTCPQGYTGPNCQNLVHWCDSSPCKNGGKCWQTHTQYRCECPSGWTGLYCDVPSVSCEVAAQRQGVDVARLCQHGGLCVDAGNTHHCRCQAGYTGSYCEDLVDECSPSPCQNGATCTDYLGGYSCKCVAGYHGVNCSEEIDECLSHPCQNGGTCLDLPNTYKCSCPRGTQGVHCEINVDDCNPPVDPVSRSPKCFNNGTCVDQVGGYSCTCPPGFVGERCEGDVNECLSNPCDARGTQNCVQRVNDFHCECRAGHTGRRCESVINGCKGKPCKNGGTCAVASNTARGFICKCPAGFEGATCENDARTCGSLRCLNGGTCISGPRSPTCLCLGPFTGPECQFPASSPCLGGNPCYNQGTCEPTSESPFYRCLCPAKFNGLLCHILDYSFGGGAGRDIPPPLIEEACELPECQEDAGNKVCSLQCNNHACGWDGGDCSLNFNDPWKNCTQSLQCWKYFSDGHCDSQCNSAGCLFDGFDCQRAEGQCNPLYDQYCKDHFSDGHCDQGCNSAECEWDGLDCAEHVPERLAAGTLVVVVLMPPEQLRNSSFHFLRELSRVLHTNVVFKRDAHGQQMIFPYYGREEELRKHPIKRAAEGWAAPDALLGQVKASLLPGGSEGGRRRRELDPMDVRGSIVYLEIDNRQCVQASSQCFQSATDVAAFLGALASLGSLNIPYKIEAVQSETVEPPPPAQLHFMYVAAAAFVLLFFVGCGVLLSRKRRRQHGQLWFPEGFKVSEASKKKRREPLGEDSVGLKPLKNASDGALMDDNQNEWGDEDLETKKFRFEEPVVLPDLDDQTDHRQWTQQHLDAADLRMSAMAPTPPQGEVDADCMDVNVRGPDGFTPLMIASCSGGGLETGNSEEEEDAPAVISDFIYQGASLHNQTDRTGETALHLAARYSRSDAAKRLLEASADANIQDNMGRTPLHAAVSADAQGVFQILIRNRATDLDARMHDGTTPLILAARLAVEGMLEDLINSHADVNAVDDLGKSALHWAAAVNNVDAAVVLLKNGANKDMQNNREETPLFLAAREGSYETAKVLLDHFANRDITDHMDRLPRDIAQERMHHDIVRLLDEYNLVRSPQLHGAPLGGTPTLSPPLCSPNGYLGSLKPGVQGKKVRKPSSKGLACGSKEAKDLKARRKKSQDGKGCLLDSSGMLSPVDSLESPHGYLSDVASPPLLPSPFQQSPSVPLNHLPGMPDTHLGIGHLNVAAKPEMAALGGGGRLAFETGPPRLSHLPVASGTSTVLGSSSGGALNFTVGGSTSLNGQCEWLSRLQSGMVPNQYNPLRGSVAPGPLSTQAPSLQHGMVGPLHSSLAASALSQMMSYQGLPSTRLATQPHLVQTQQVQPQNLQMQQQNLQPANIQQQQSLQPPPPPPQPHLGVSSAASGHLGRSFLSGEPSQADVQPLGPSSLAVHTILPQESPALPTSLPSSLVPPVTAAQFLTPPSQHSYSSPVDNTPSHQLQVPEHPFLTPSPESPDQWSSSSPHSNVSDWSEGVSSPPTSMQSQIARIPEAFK", "experiment": "Western blot of Notch1 ICD formation after DLL4 stimulation of Notch1-Hela cells", "format": "cell-based", "set-up": "expressed in transfected cells; host or cells: HeLa (Notch1-Hela)", "conditions": "DLL4-fc coated wells, five hours", "method": "Cleavage of Notch receptors by furin, ADAM, and gamma-secretase results in formation of the Notch intracellular domain (ICD) that then triggers downstream Notch signaling in the nucleus. In certain embodiments, the ability of Notch1 receptor antibodies to block ligand-mediated receptor activation was determined by Western blot analysis. Notch1-Hela cells were grown in suspension culture in 293-SMII media (Gibco). Cultured cells were transferred to 96-well plates in which select wells had been pre-coated with human DLL4-fc fusion protein ([…]) in DMEM plus 2% FBS and 1 μM MG132 (Calbiochem). Antibodies to generated against a membrane proximal region of the extracellular domain of human Notch1 were added to the cell culture medium, and cells were incubated at 37° C. for five hours. Wells were then aspirated and the cells resuspended in 2×SDS running buffer. Samples were sonicated at room temperature, and then subjected to SDS-PAGE and western blot analysis using an antibody specific for the cleaved Notch1 ICD according to the manufacturer's recommendations (Cell Signaling Technology)."}, "[3]": {"molecular_target": "T1, Notch1", "experiment": "ELISA of conditioned media from cotransfected HEK 293 cells for Notch1 binding activity", "conditions": "candidate humanized chains cotransfected into HEK 293 cells", "method": "The functionality of each candidate variant humanized heavy and light chain was tested by cotransfection into mammalian cells. Each of the nine candidate humanized 52M51 heavy chains described above was cotransfected into HEK 293 cells with the murine 52M51 light chain cDNA, and conditioned media was assayed by ELISA for Notch1 binding activity. […] This variant “52M51-H4” (SEQ ID NO:22) contains, in addition to murine CDRs, variation at 3 framework positions within the Vh framework, Kabat positions 20, 48, and 71 in comparison with an example human framework (e.g. IGHV1-24). The 52M51-H4 humanized heavy chain was then cotransfected into HEK293 cells with each of the eight candidate humanized light chains, and conditioned media was again assayed for antigen binding by ELISA. […] Variant 52M51-L3 contains, in addition to murine CDRs, variation at 1 framework position at Kabat position 49 in comparison to an example human framework (e.g., IGLV7-46). Two humanized variant antibodies, 52M51H4L3 and 52M51H4L4, were developed. 52M51H4L3, as encoded by DNA deposited with the ATCC, under the conditions of the Budapest Treaty on Oct. 15, 2008, and assigned designation number PTA-9549."}, "[4]": {"molecular_target": "T1, Notch1", "experiment": "hDLL4-fc-induced Notch reporter luciferase assay in Notch1-Hela cells", "format": "cell-based", "set-up": "expressed in transfected cells; host or cells: HeLa (Notch1-Hela)", "conditions": "plates coated with 200 ng/well hDLL4-fc, 48 hours after transfection", "method": "In certain embodiments, the ability of Notch1 receptor antibodies to block ligand-mediated Notch signaling was determined. In certain embodiments, HeLa cells engineered to overexpress Notch1 (Notch1-Hela) cultured in DMEM supplemented with antibiotics and 10% FCS were co-transfected with 1) pGL4 8×CBS firefly luciferase containing a Notch responsive promoter upstream of a firefly luciferase reporter gene to measure Notch signaling levels in response to DLL4 ligand; and 2) a Renilla luciferase reporter (Promega; Madison, Wis.) as an internal control for transfection efficiency. Transfected cells were added to cultures plates coated overnight with 200 ng/well of hDLL4-fc protein, and antibodies to Notch1 were then added to the cell culture medium. Forty-eight hours following transfection, luciferase levels were measured using a dual luciferase assay kit (Promega; Madison, Wis.) with firefly luciferase activity normalized to Renilla luciferase activity. The ability of antibodies to inhibit Notch1 pathway activation was thus determined."}},
  "note": "Entries after “also recorded” stand apart in the source; their conditions may differ.",
  "data": [
    {"molecule": "52M51: murine monoclonal antibody to membrane proximal region of human Notch1; hybridoma ATCC PTA-9405; heavy SEQ ID NO:10, light SEQ ID NO:4 (antibody, Synthetic heavy chain of antibody 52M51; Synthetic light chain of antibody 52M51) heavy: MEWTWVFLFLLSVTAGVHSQVQLQQSGAELMKPGASVKISCKAAGYTMRGYWIEWIKQRPGHGLEWIGQILPGTGRTNYNEKFKGKATFTADTSSNTANMQLSSLTSEDSAVYYCARFDGNYGYYAMDYWGQGSSVTVSSAKTTPPSVYPLAPGSAAQTNSMVTLGCLVKGYFPEPVTVTWNSGSLSSGVHTFPAVLQSDLYTLSSSVTVPSSPRPSETVTCNVAHPASSTKVDKKIVPRDCGCKPCICTVPEVSSVFIFPPKPKDVLTITLTPKVTCVVVDISKDDPEVQFSWFVDDVEVHTAQTQPREEQFNSTFRSVSELPIMHQDWLNGKEFKCRVNSAAFPAPIEKTISKTKGRPKAPQVYTIPPPKEQMAKDKVSLTCMITDFFPEDITVEWQWNGQPAENYKNTQPIMNTNGSYFVYSKLNVQKSNWEAGNTFTCSVLHEGLHNHHTEKSLSHSPGK light: MAWISLILSLLALSSGAISQAVVTQESALTTSPGETVTLTCRSSTGAVTTSNYANWVQEKPDHLFTGLIGGTNNRAPGVPARFSGSLIGDKAALTITGAQTEDEAIYFCALWYSNHWVFGGGTKLTVLGQPKSSPSVTLFPPSSEELETNKATLVCTITDFYPGVVTVDWKVDGTPVTQGMETTQPSKQSNNKYMASSYLTLTARAWERHSSYSCQVTHEGHTVEKSLSRADCS", "values": [
      {"measurement": "tumor growth compared to control antibody", "setting": "[1]", "value": "statistically significant (p=0.0006) inhibition of tumor growth; also recorded: significantly (p=0.0006) inhibited tumor growth"},
      {"measurement": "Notch1 ICD formation after ligand stimulation", "setting": "[2]", "value": "significantly inhibited the generation of ICD; also recorded: reduce ICD formation to background levels"}
    ]},
    {"molecule": "52M51-H4: humanized 52M51 heavy chain variant (SEQ ID NO:22), tested with the murine 52M51 light chain (antibody) heavy: QVQLVQSGAEVKKPGASVKISCKVSGYTLRGYWIEWVRQAPGKGLEWIGQILPGTGRTNYNEKFKGRVTMTADTSTDTAYMELSSLRSEDTAVYYCARFDGNYGYYAMDYWGQGTTVTVSSASTKGPSVFPLAPCSRSTSESTAALGCLVKDYFPEPVTVSWNSGALTSGVHTFPAVLQSSGLYSLSSVVTVPSSNFGTQTYTCNVDHKPSNTKVDKTVERKCCVECPPCPAPPVAGPSVFLFPPKPKDTLMISRTPEVTCVVVDVSHEDPEVQFNWYVDGVEVHNAKTKPREEQFNSTFRVVSVLTVVHQDWLNGKEYKCKVSNKGLPAPIEKTISKTKGQPREPQVYTLPPSREEMTKNQVSLTCLVKGFYPSDIAVEWESNGQPENNYKTTPPMLDSDGSFFLYSKLTVDKSRWQQGNVFSCSVMHEALHNHYTQKSLSLSPGK light: QAVVTQESALTTSPGETVTLTCRSSTGAVTTSNYANWVQEKPDHLFTGLIGGTNNRAPGVPARFSGSLIGDKAALTITGAQTEDEAIYFCALWYSNHWVFGGGTKLTVLGQPKSSPSVTLFPPSSEELETNKATLVCTITDFYPGVVTVDWKVDGTPVTQGMETTQPSKQSNNKYMASSYLTLTARAWERHSSYSCQVTHEGHTVEKSLSRADCS", "values": [
      {"measurement": "Notch1 / antigen binding by ELISA", "setting": "[3]", "value": "most robust binding"}
    ]},
    {"molecule": "52M51H4L3: humanized variant of 52M51, heavy chain H4 and light chain L3; DNA deposited as ATCC PTA-9549 (antibody) heavy: QVQLVQSGAEVKKPGASVKISCKVSGYTLRGYWIEWVRQAPGKGLEWIGQILPGTGRTNYNEKFKGRVTMTADTSTDTAYMELSSLRSEDTAVYYCARFDGNYGYYAMDYWGQGTTVTVSSASTKGPSVFPLAPCSRSTSESTAALGCLVKDYFPEPVTVSWNSGALTSGVHTFPAVLQSSGLYSLSSVVTVPSSNFGTQTYTCNVDHKPSNTKVDKTVERKCCVECPPCPAPPVAGPSVFLFPPKPKDTLMISRTPEVTCVVVDVSHEDPEVQFNWYVDGVEVHNAKTKPREEQFNSTFRVVSVLTVVHQDWLNGKEYKCKVSNKGLPAPIEKTISKTKGQPREPQVYTLPPSREEMTKNQVSLTCLVKGFYPSDIAVEWESNGQPENNYKTTPPMLDSDGSFFLYSKLTVDKSRWQQGNVFSCSVMHEALHNHYTQKSLSLSPGK light: SGVDSQAVVTQEPSLTVSPGGTVTLTCRSSTGAVTTSNYANWFQQKPGQAPRTLIGGTNNRAPGVPARFSGSLLGGKAALTLSGAQPEDEAEYYCALWYSNHWVFGGGTKLTVLGQPKAAPSVTLFPPSSEELQANKATLVCLVSDFYPGAVTVAWKADGSPVKVGVETTKPSKQSNNKYAASSYLSLTPEQWKSHRSYSCRVTHEGSTVEKTVAPAECS", "values": [
      {"measurement": "Notch signaling (luciferase activity)", "setting": "[4]", "value": "significantly inhibited Notch signaling"}
    ]}
  ]
}
